Source: the supplement of paper PMC12783771
± gives the standard deviation of the averaged measurements.

B1: library; numbered along this chain (parent)
chain: MNIQIGELAKRTACPVVTIRFYEQEGLLPPPGRSRGNFRLYGEEHVERLQFIRHCRSLDMPLSDVRTLLSYRKRPDQDCGEVNMLLDEHIRQVESRIGALLELKHHLVELREACSGARPAQSCGILQGLSDCVCDTRGTTAHPSD

Columns and labels:
[1] = variants of: B1; assay: sfGFP reporter fluorescence (15 h) (µM FITC); higher = higher leak; details: library round: Round 0; ligand: none
Outline: (§1)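 An Echo normalized PCR-made linear PbrR templates to 5 nM and assembled 1 μL reactions in BL21 Star (DE3) PANOx-SP extract carrying the pPbrR-sfGFP reporter plasmid and 30 μg/mL GamS. Reactions received 1 µM lead chloride, 30 µM zinc acetate or no metal and stood 15 hr at 30 °C. Fluorescence at 485/528 nm (Synergy Neo2) was converted with FITC standard curves made in 50 mM sodium borate pH 8.5. Endpoint sfGFP signal is given in µM FITC, from up to three biological replicates.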

[2] = variants of: B1; assay: sfGFP reporter fluorescence (15 h) (µM FITC); higher = stronger transcriptional activation; details: library round: Round 0
Outline: as §1

Variant | sfGFP reporter fluorescence [1] | sfGFP reporter fluorescence ([2]; ligand: 1 µM Pb) | sfGFP reporter fluorescence ([2]; ligand: 30 µM Zn)
V108I | 0.0566 ± 0.0013 | 0.0667 ± 0.0026 | 0.508 ± 0.011
V108F | 0.0561 ± 0.001 | 0.0685 ± 0.001 | 0.436 ± 0.028
V108P | 0.0572 ± 0.0015 | 0.06011 ± 0.00052 | 0.0621 ± 0.0018
V108C | 0.0594 ± 0.0026 | 0.0788 ± 0.0015 | 1.04 ± 0.091
V108A | 0.06304 ± 0.00052 | 0.0729 ± 0.0042 | 0.408 ± 0.11
V108E | 0.0579 ± 0.001 | 0.06652 ± 0.00026 | 0.62 ± 0.11
V108K | 0.0607 ± 0.00078 | 0.0803 ± 0.0026 | 1.13 ± 0.093
V108T | 0.0588 ± 0.00078 | 0.0724 ± 0.00078 | 0.795 ± 0.063
V108H | 0.05772 ± 0.00026 | 0.0814 ± 0.0073 | 0.846 ± 0.019
V108M | 0.05662 ± 0.00026 | 0.0682 ± 0.0026 | 0.583 ± 0.019
V108S | 0.0568 ± 0.0026 | 0.0696 | 0.772 ± 0.061
V108Y | 0.0608 ± 0.0015 | 0.108 ± 0.0021 | 1.18 ± 0.067
V108D | 0.061 ± 0.00078 | 0.0931 ± 0.0015 | 1.45 ± 0.068
V108G | 0.057 ± 0.00078 | 0.0658 ± 0.0049 | 0.567 ± 0.1
V108Q | 0.0566 ± 0.00078 | 0.068 ± 0.0018 | 0.672 ± 0.06
V108N | 0.0574 ± 0.0013 | 0.06414 ± 0.00052 | 0.611 ± 0.073
V108W | 0.0583 ± 0.001 | 0.072 ± 0.0029 | 0.554 ± 0.0067
R118A | 0.0676 ± 0.0018 | 0.0665 ± 0.00078 | 0.168 ± 0.026
H105A | 0.0623 | 0.0687 ± 0.0044 | 0.769 ± 0.086
R111F | 0.0581 ± 0.00078 | 0.06927 ± 0.00052 | 0.328 ± 0.019
R111K | 0.0575 ± 0.0015 | 0.06194 ± 0.00052 | 0.149 ± 0.02
R111H | 0.05791 ± 0.00052 | 0.0652 ± 0.0026 | 0.2344 ± 0.0013

Variant | sfGFP reporter fluorescence [1] | sfGFP reporter fluorescence ([2]; ligand: 1 µM Pb) | sfGFP reporter fluorescence ([2]; ligand: 30 µM Zn)
R111Q | 0.0572 ± 0.001 | 0.0618 ± 0.0013 | 0.275 ± 0.0083
R111T | 0.0599 ± 0.00078 | 0.07752 ± 0.00026 | 0.535 ± 0.081
R111E | 0.05864 ± 0.00052 | 0.0684 ± 0.00078 | 0.267 ± 0.013
R111W | 0.05937 ± 0.00052 | 0.0632 ± 0.0018 | 0.189 ± 0.0042
R111C | 0.0572 ± 0.0021 | 0.077 ± 0.0042 | 0.157 ± 0.0054
R111N | 0.0583 | 0.0684 ± 0.00078 | 0.391 ± 0.032
R111I | 0.0544 ± 0.00078 | 0.0662 ± 0.0013 | 0.288 ± 0.0036
R111A | 0.0634 ± 0.0026 | 0.09932 ± 0.00052 | 1.17 ± 0.021
R111G | 0.0535 | 0.0623 ± 0.001 | 0.343 ± 0.0083
R111Y | 0.0566 ± 0.0023 | 0.0651 ± 0.00078 | 0.28 ± 0.029
R111M | 0.05772 ± 0.00026 | 0.0623 ± 0.0026 | 0.243 ± 0.001
R111V | 0.0586 ± 0.001 | 0.0744 ± 0.0021 | 0.483 ± 0.0073
R111P | 0.0577 ± 0.0018 | 0.05846 ± 0.00026 | 0.0542 ± 0.0015
R111L | 0.0552 ± 0.0013 | 0.06469 ± 0.00026 | 0.2 ± 0.016
R111S | 0.06102 ± 0.00026 | 0.0951 ± 0.0023 | 1.14 ± 0.11
R111D | 0.0585 ± 0.0013 | 0.06707 ± 0.00052 | 0.215 ± 0.0029
E102A | 0.0735 ± 0.0018 | 0.0771 ± 0.0029 | 0.302 ± 0.057
I97R | 0.0577 ± 0.0054 | 0.0564 ± 0.0015 | 0.116 ± 0.0013
I97Y | 0.0603 ± 0.0034 | 0.0825 ± 0.0026 | 0.721 ± 0.031
I97V | 0.0563 ± 0.0023 | 0.0605 ± 0.0026 | 0.338 ± 0.015
I97T | 0.0579 ± 0.0042 | 0.0662 ± 0.0034 | 0.579 ± 0.0096
I97S | 0.0592 ± 0.0039 | 0.0722 ± 0.0015 | 0.554 ± 0.0062
